For series [1], the system named is hTERT-HMEC. Kind of series: percentage of EdU-negative (G0-arrested) nuclei per well, 72 h; higher = more G0 arrest. As to conditions: reference: sequence is the full UniProt precursor, the tested protein was the secreted form or ectodomain.
Series [2] has as its system MCF7. Described as above. As to conditions: reference: sequence is the full UniProt precursor, the tested protein was the secreted form or ectodomain.
Where [3] appears, read: protein concentration 0.0225 µM.
[4] abbreviates: protein concentration 0.0171429 µM.
Where [5] appears, read: protein concentration 0.171429 µM.
The mark [6] stands for this setting: protein concentration 0.010965 µM.
Setting [7] is: protein concentration 0.10965 µM.
[8] abbreviates: protein concentration 0.02225 µM.
Where [9] appears, read: protein concentration 0.2225 µM.

± gives the standard deviation of the averaged measurements.
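Further: secreted proteins added to cultured cells, EdU pulse at the end, nuclei found by Hoechst imaging, EdU status from nuclear versus surrounding ring intensity ratio, PBS as neutral control.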

“MPGRSCVALVLLAAAVSCAVAQHAPPWTEDCRKSTYPPSGPTYRGAVPWYTINLDLPPYKRWHELMLDKAPVLKVIVNSLKNMINTFVPSGKIMQVVDEKLPGLLGNFPGPFEEEMKGIAAVTDIPLGEIISFNIFYELFTICTSIVAEDKKGHLIHGRNMDFGVFLGWNINNDTWVITEQLKPLTVNLDFQRNNKTVFKASSFAGYVGMLTGFKPGLFSLTLNERFSINGGYLGILEWILGKKDVMWIGFLTRTVLENSTSYEEAKNLLTKTKILAPAYFILGGNQSGEGCVITRDRKESLDVYELDAKQGRWYVVQTNYDRWKHPFFLDDRRTPAKMCLNRTSQENISFETMYDVLSTKPVLNKLTVYTTLIDVTKGQFETYLRDCPDPCIGW”: the “percentage of EdU-negative” value in series [1] (setting [3]) amounted to 4.75 ± 0.61%; in series [1] (protein concentration 0.225 µM) it was 12.9 ± 1.1%; in series [2] (setting [3]), 26.7 ± 2.9%; in series [2] (protein concentration 0.225 µM), 26.1 ± 0.96%.
Take “MLLFLLSALVLLTQPLGYLEAEMKTYSHRTMPSACTLVMCSSVESGLPGRDGRDGREGPRGEKGDPGLPGAAGQAGMPGQAGPVGPKGDNGSVGEPGPKGDTGPSGPPGPPGVPGPAGREGPLGKQGNIGPQGKPGPKGEAGPKGEVGAPGMQGSAGARGLAGPKGERGVPGERGVPGNTGAAGSAGAMGPQGSPGARGPPGLKGDKGIPGDKGAKGESGLPDVASLRQQVEALQGQVQHLQAAFSQYKKVELFPNGQSVGEKIFKTAGFVKPFTEAQLLCTQAGGQLASPRSAAENAALQQLVVAKNEAAFLSMTDSKTEGKFTYPTGESLVYSNWAPGEPNDDGGSEDCVEIFTNGKWNDRACGEKRLVVCEF”: the “percentage of EdU-negative” value in series [1] (setting [4]) is 4.51 ± 0.51%; in series [1] (setting [5]) it was 5.78 ± 0.29%; in series [2] (setting [4]), 23.4 ± 1.8%; in series [2] (setting [5]) it was 25.14 ± 0.067%.
As for “MAAPGSARRPLLLLLLLLLLGLMHCASAAMFMVKNGNGTACIMANFSAAFSVNYDTKSGPKNMTFDLPSDATVVLNRSSCGKENTSDPSLVIAFGRGHTLTLNFTRNATRYSVQLMSFVYNLSDTHLFPNASSKEIKTVESITDIRADIDKKYRCVSGTQVHMNNVTVTLHDATIQAYLSNSSFSRGETRCEQDRPSPTTAPPAPPSPSPSPVPKSPSVDKYNVSGTNGTCLLASMGLQLNLTYERKDNTTVTRLLNINPNKTSASGSCGAHLVTLELHSEGTTVLLFQFGMNASSSRFFLQGIQLNTILPDARDPAFKAANGSLRALQATVGNSYKCNAEEHVRVTKAFSVNIFKVWVQAFKVEGGQFGSVEECLLDENSMLIPIAVGGALAGLVLIVLIAYLVGRKRSHAGYQTI”, the “percentage of EdU-negative” value in series [1] (setting [3]) came out at 4.801 ± 0.044%; in series [1] (protein concentration 0.225 µM), 7.68 ± 1.6%; in series [2] (setting [3]) it was 27.7 ± 2.6%; in series [2] (protein concentration 0.225 µM) it was 28.6 ± 2.1%.
With “MRIMLLFTAILAFSLAQSFGAVCKEPQEEVVPGGGRSKRDPDLYQLLQRLFKSHSSLEGLLKALSQASTDPKESTSPEKRDMHDFFVGLMGKRSVQPDSPTDVNQENVPSFGILKYPPRAE [Q9UHF0]”, the “percentage of EdU-negative” value amounted to 5.911 ± 0.0092% in series [1] (setting [3]), 5.91 ± 0.065% in series [1] (protein concentration 0.225 µM), 22.8 ± 2.6% in series [2] (setting [3]) and 25.6 ± 1.7% in series [2] (protein concentration 0.225 µM).
Turning to “MARSLVCLGVIILLSAFSGPGVRGGPMPKLADRKLCADQECSHPISMAVALQDYMAPDCRFLTIHRGQVVYVFSKLKGRGRLFWGGSVQGDYYGDLAARLGYFPSSIVREDQTLKPGKVDVKTDKWDFYCQ”, the “percentage of EdU-negative” value in series [1] (setting [6]) worked out at 5.39 ± 0.091%; in series [1] (setting [7]) it was 5.67 ± 0.4%; in series [2] (setting [6]), 26.1 ± 1.1%; in series [2] (setting [7]), 26.2 ± 1.9%.
“MSISLSSLILLPIWINMAQIQQGGPDEKEKTTALKDLLSRIDLDELMKKDEPPLDFPDTLEGFEYAFNEKGQLRHIKTGEPFVFNYREDLHRWNQKRYEALGEIITKYVYELLEKDCNLKKVSIPVDATESEPKSFIFMSEDALTNPQKLMVLIHGSGVVRAGQWARRLIINEDLDSGTQIPFIKRAVAEGYGVIVLNPNENYIEVEKPKIHVQSSSDSSDEPAEKRERKDKVSKETKKRRDFYEKYRNPQREKEMMQLYIRENGSPEEHAIYVWDHFIAQAAAENVFFVAHSYGGLAFVELMIQREADVKNKVTAVALTDSVHNVWHQEAGKTIREWMRENCCNWVSSSEPLDTSVESMLPDCPRVSAGTDRHELTSWKSFPSIFKFFTEASEAKTSSLKPAVTRRSHRIKHEEL [Q8WUF8]”: the “percentage of EdU-negative” value in series [1] (setting [3]) stood at 4.387 ± 0.021%; in series [1] (protein concentration 0.225 µM), 5.5592 ± 0.0051%; in series [2] (setting [3]) it was 24.1 ± 1.1%; in series [2] (protein concentration 0.225 µM), 24 ± 0.46%.
Regarding “MGLGPVFLLLAGIFPFAPPGAAAEPHSLRYNLTVLSWDGSVQSGFLTEVHLDGQPFLRCDRQKCRAKPQGQWAEDVLGNKTWDRETRDLTGNGKDLRMTLAHIKDQKEGLHSLQEIRVCEIHEDNSTRSSQHFYYDGELFLSQNLETKEWTMPQSSRAQTLAMNVRNFLKEDAMKTKTHYHAMHADCLQELRRYLKSGVVLRRTVPPMVNVTRSEASEGNITVTCRASGFYPWNITLSWRQDGVSLSHDTQQWGDVLPDGNGTYQTWVATRICQGEEQRFTCYMEHSGNHSTHPVPSGKVLVLQSHWQTFHVSAVAAAAIFVIIIFYVRCCKKKTSAAEGPELVSLQVLDQHPVGTSDHRDATQLGFQPLMSDLGSTGSTEGA”, the “percentage of EdU-negative” value in series [1] (setting [8]) worked out at 5.41 ± 0.075%; in series [1] (setting [9]), 6.78 ± 1.8%; in series [2] (setting [8]), 24.7 ± 0.99%; in series [2] (setting [9]), 26.3 ± 1.6%.
With “MVLCFPLLLLLLVLWGPVCPLHAWPKRLTKAHWFEIQHIQPSPLQCNRAMSGINNYTQHCKHQNTFLHDSFQNVAAVCDLLSIVCKNRRHNCHQSSKPVNMTDCRLTSGKYPQCRYSAAAQYKFFIVACDPPQKSDPPYKLVPVHLDSIL”, the “percentage of EdU-negative” value is 4.8 ± 0.73% in series [1] (setting [3]), 7.49 ± 1.4% in series [1] (protein concentration 0.225 µM), 25.2 ± 2.5% in series [2] (setting [3]) and 25 ± 4.7% in series [2] (protein concentration 0.225 µM).
“MKWMVVVLVCLQLLEAAVVKVPLKKFKSIRETMKEKGLLGEFLRTHKYDPAWKYRFGDLSVTYEPMAYMDAAYFGEISIGTPPQNFLVLFDTGSSNLWVPSVYCQSQACTSHSRFNPSESSTYSTNGQTFSLQYGSGSLTGFFGYDTLTVQSIQVPNQEFGLSENEPGTNFVYAQFDGIMGLAYPALSVDEATTAMQGMVQEGALTSPVFSVYLSNQQGSSGGAVVFGGVDSSLYTGQIYWAPVTQELYWQIGIEEFLIGGQASGWCSEGCQAIVDTGTSLLTVPQQYMSALLQATGAQEDEYGQFLVNCNSIQNLPSLTFIINGVEFPLPPSSYILSNNGYCTVGVEPTYLSSQNGQPLWILGDVFLRSYYSVYDLGNNRVGFATAA”: the “percentage of EdU-negative” value in series [1] (setting [3]) turned out to be 4.89 ± 0.11%; in series [1] (protein concentration 0.225 µM) it was 6.1 ± 0.73%; in series [2] (setting [3]), 24.38 ± 0.12%; in series [2] (protein concentration 0.225 µM), 23.4 ± 0.35%.

The values above are taken from the supplement of paper PMC11316812.
